Here are results for 4 molecules from patent US9688764B2, “Methods of treating breast cancer by administering anti-human prolactin receptor (PRLR) antibodies” (REGENERON PHARMACEUTICALS, INC., priority 2013, dated 2017).

The test system of test [1] is HEK293 (non-expressing parental cells). The experiment in a line: FACS cell surface binding. In short, it runs like this: (§1)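 HEK293 lines stably expressing HA-tagged human, cynomolgus or mouse PRLR, native-expressing T47D and parental HEK293 tested by flow cytometry. Cells (1×10^5) stained with primary antibody 30 min on ice, then PE anti-human secondary; MFI expressed as fold over isotype control.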

The next test has as its target T1, HEK293/hPRLR (Homo sapiens, UniProt P16471).
T1 construct: HA; expressed in transfected cells; host or cells: HEK293
T1 sequence (P16471 25-622): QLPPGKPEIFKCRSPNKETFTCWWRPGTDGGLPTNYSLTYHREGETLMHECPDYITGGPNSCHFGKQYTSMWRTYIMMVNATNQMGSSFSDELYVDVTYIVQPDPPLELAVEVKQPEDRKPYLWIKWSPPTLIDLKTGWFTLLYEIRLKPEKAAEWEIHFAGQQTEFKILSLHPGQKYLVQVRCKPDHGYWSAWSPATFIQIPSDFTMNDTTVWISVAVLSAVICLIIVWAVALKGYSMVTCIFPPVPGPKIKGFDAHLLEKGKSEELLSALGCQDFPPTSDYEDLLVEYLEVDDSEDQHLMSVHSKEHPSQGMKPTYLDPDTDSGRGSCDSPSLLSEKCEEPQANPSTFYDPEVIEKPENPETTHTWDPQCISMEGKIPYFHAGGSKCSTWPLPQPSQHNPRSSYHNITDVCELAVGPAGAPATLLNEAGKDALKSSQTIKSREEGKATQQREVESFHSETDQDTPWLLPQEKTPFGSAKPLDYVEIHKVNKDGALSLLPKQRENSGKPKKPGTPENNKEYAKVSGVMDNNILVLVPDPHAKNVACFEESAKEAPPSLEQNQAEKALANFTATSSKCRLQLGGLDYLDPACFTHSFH
The experiment in a line: FACS cell surface binding. In short, it runs like this: as §1

The target of test [2] is T2, T47D (native PRLR expressing cell line) (Homo sapiens, UniProt P16471).
T2 construct: a native PRLR expressing cell line (T47D); endogenous in cells; host or cells: T47D
T2 sequence (P16471 25-622): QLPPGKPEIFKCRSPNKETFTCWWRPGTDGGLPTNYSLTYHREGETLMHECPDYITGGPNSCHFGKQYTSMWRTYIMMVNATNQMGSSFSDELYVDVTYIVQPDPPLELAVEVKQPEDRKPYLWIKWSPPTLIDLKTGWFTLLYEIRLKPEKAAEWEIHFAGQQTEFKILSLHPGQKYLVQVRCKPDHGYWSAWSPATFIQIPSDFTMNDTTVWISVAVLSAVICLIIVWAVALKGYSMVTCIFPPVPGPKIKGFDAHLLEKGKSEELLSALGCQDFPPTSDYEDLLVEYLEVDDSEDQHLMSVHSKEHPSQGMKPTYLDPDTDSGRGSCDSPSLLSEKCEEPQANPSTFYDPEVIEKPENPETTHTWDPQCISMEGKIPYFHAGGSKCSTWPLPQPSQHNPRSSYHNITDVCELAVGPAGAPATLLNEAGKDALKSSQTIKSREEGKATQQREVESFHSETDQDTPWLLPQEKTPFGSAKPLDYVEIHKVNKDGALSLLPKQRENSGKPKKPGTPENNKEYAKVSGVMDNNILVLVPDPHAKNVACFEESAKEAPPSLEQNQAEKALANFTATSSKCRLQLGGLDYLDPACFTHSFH
Description: FACS cell surface binding. In a few lines: as §1

The next test has as its target T3, HEK293/mPRLR (Mus musculus, UniProt Q08501).
T3 construct: HA; expressed in transfected cells; host or cells: HEK293
T3 sequence (Q08501 20-608): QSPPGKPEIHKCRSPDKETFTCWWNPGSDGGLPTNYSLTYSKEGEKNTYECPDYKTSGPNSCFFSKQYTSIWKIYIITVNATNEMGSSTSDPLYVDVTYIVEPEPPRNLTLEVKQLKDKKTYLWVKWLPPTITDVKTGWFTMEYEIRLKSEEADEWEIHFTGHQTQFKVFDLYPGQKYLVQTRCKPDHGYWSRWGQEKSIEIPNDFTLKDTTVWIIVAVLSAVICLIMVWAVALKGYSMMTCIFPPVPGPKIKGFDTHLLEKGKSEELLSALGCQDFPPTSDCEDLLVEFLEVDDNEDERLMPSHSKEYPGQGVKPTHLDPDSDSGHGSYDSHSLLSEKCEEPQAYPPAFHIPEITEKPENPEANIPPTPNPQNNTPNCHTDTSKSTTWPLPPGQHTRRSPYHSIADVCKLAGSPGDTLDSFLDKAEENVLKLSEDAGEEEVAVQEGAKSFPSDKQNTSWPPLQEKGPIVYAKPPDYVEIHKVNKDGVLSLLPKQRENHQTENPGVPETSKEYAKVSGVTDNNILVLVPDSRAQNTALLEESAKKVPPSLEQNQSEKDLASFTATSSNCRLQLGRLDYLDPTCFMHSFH
Description: FACS cell surface binding. In a few lines:
as §1

For test [3], the target named is T4, hPRLR.mFc (soluble dimeric human PRLR) (Homo sapiens, UniProt P16471).
T4 construct: dimeric (hPRLR.mFc)
T4 sequence (P16471 with tags, fused parts or gaps): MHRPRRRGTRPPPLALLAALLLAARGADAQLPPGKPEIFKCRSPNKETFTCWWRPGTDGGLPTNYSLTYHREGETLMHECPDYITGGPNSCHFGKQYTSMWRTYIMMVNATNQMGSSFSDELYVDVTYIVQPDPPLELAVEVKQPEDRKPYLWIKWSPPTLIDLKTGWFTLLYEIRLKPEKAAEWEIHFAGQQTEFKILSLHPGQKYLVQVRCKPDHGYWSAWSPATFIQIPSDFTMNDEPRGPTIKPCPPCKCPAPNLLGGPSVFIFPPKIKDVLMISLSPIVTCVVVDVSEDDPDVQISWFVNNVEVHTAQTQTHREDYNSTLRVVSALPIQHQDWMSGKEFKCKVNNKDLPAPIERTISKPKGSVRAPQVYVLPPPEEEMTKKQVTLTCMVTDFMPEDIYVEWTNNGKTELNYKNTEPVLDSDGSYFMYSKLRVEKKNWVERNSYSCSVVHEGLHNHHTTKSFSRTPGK
The experiment in a line: Surface plasmon resonance (Biacore T200), mAb-capture format. Type of test: binding. To be noted: antibody-capture format, analyte hPRLR.mFc. In short, it runs like this:
(§2)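 Kinetic constants (ka, kd) by 1:1 fitting; IgG1 mAbs held by anti-human Fc capture, soluble human or cyno PRLR (monomer .mmh, human dimer .mFc) injected.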

Test [4] concerns the target mfPRLR.mmh (monomeric macaca fascicularis PRLR). The test is described as above. The note with it: antibody-capture format, analyte mfPRLR.mmh. Type of test: binding. In a few lines: as §2
Test [5] concerns the target T5, hPRLR.mmh (soluble monomeric human PRLR) (Homo sapiens, UniProt P16471).
T5 construct: soluble monomeric (hPRLR.mmh); mmh (myc-myc-hexahistidine)
The description is as above. Type of test: binding. The note with it: antibody-capture format, analyte hPRLR.mmh. In a few lines:
as §2

Chain of mfPRLR.mmh (monomeric macaca fascicularis PRLR) (as listed by the source): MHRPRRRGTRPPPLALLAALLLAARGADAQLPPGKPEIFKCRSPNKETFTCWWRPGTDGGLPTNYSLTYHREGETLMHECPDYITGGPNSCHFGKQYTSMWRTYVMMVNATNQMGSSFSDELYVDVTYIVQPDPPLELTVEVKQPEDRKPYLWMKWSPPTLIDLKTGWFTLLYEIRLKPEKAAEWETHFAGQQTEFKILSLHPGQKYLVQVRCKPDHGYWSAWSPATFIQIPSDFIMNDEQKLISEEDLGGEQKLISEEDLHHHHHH
T5 sequence (P16471 with tags, fused parts or gaps): as the sequence (as listed by the source) above, with V105I, T139A, M154I, T187I, I236T counted along it

B1: H1H6803P: anti-PRLR antibody, human IgG1 Fc; HCVR/LCVR SEQ ID NOs 226/234 (antibody, V domains shown)
VH: EVQLVESGGGVVRPGGSLRLSCAASGFKFDDYGMTWVRHVPGKGLEWVSGINWNGGRTGYTDSVKGRFTISRDNAKNSLYLQMNSLRAEDTALYHCAGARRDAFDIWGQGTMVTVSS
VL: DIQMTQSPSSLSASIGDRVTITCRASQNIIKYLNWYQQNAGKAPKLLIYTASSLQSGVPSRFSGSGSGTDFTLTISSLQPEDFATYYCQQSSSSPYTFGQGTKLEIK
modifications: human IgG1 Fc
For the molecule B1, the “FACS Cell Binding (Fold Above Background)” value in test [1] came to 1 Fold Above Background; in the test with HEK293/hPRLR, 39 Fold Above Background; in test [2] it was 39 Fold Above Background; with HEK293/mPRLR, 1 Fold Above Background. For the same molecule, the Kd (as a rule, the equilibrium constant for the complex coming apart) in test [3] (25° C.) worked out at 0.607 nM; in test [3] (37° C.) it was 0.461 nM; in test [4] (25° C.) it was 3.37 nM; in test [4] (37° C.), 7.28 nM; in test [5] (25° C.) it was 1.67 nM; in test [5] (37° C.), 2.83 nM. Moreover, the T½ in test [3] (25° C.) turned out to be 184 min; in test [3] (37° C.), 186 min; in test [4] (25° C.) it was 55 min; in test [4] (37° C.) it was 18 min; in test [5] (25° C.) it was 84 min; in test [5] (37° C.), 32 min.

B2: H1H6953N: human IgG1 Fc form of H1M6953N; anti-PRLR; HCVR/LCVR SEQ ID NOs 274/282 (antibody, V domains shown)
VH: EVQLLESGGGLVQPGGTLRLSCAASGFTFSAYAMSWVRQAPGKGLEWVSSINVRAGDTYYADSVKGRFTISRDNSKNTLFLLMNSLRAEDTAAYYCAKARYSSNWGFDFWGQGTLVTVSS
VL: DIVMTQSPDSLTVSLGARTTINCQSSQTILHSSNNHNYLAWYQQKPGLPPKLLIYWSSTRESGVPDRFSGSGSGTDFTLTISSLQAEDVAIYYCQQYSNTPYTFGQGTKLEIN
modifications: human IgG1 Fc
Consider B2, for which the “FACS Cell Binding (Fold Above Background)” value in test [1] was found to be 2 Fold Above Background; with HEK293/hPRLR it was 37 Fold Above Background; in test [2], 40 Fold Above Background; with HEK293/mPRLR, 2 Fold Above Background. For the same molecule, the dissociation constant Kd in test [3] (25° C.) amounted to 0.067 nM; in test [3] (37° C.), 0.116 nM; in test [4] (25° C.), 0.438 nM; in test [4] (37° C.), 2.71 nM; in test [5] (25° C.) it was 0.268 nM; in test [5] (37° C.), 1.11 nM. For the same molecule, the T½ in test [3] (25° C.) turned out to be 242.2 min; in test [3] (37° C.), 68.0 min; in test [4] (25° C.), 36.3 min; in test [4] (37° C.), 4.5 min; in test [5] (25° C.) it was 54.5 min; in test [5] (37° C.), 9.4 min.

B3: H1H6804P: anti-PRLR antibody, human IgG1 Fc; HCVR/LCVR SEQ ID NOs 242/250 (antibody, V domains shown)
VH: QVTLKESGPVLVKPTQTLSLTCTVSGFSLSDAGMGVSWIRQPPGKALEWLAHIFSNDGKSYSTSLKSRLTISKDTSKRQVVLTMTNMDPVDTATYYCARIRTGTYSLYLDYWGQGTLVTVSS
VL: DIQMTQSPSSLSASVGDRVTITCRASQSINSYLNWYQQKPGKAPKLLLYFASSLQSGVPSRFSGSGSGTDFTLTISSLQPEDFASYYCQESYSTPWTFGQGTKVEIK
modifications: human IgG1 Fc
As to B3, the “FACS Cell Binding (Fold Above Background)” value in test [1] came to 1 Fold Above Background; with HEK293/hPRLR it was 1 Fold Above Background; in test [2] it was 34 Fold Above Background; with HEK293/mPRLR, 1 Fold Above Background. Moreover, the equilibrium dissociation constant (Kd) in test [3] (25° C.) was 0.193 nM; in test [3] (37° C.) it was 0.369 nM; in test [4] (25° C.), 1.99 nM; in test [4] (37° C.) it was 9.35 nM; in test [5] (25° C.), 1.4 nM; in test [5] (37° C.) it was 6.34 nM. Besides, the T½ in test [3] (25° C.) was 133 min; in test [3] (37° C.) it was 56 min; in test [4] (25° C.), 18 min; in test [4] (37° C.), 3 min; in test [5] (25° C.), 18 min; in test [5] (37° C.), 3 min.

B4: H1H6801P: anti-PRLR antibody, human IgG1 Fc; HCVR/LCVR SEQ ID NOs 210/218 (antibody, V domains shown)
VH: QVQLQQSGPGLVKPSQTLSLTCVISGDSVSSNTAWNWVRQSPSRGLEWLGRTYYRSKWYNDYAVSVKSRITINPDTSKNQFSLLMNSVTPEDTAVYYCARVVRGLNYFDYWGQGTLVTVSS
VL: DIVMTQSPDSLAVSLGERATINCKSSQSVLYNSNNKNYLAWYQQKPGQPPKLLIYWSSSRESGVPDRFSGSGSGTDFTLTISGLQAEDVAIYYCQQYSTIPYTFGQGTKLEIK
modifications: human IgG1 Fc
For the molecule B4, the “FACS Cell Binding (Fold Above Background)” value in test [1] was found to be 7 Fold Above Background; with HEK293/hPRLR it was 47 Fold Above Background; in test [2] it was 45 Fold Above Background; in the test with HEK293/mPRLR, 56 Fold Above Background. Also, the equilibrium dissociation constant (Kd) in test [3] (25° C.) was found to be 0.161 nM; in test [3] (37° C.), 0.279 nM; in test [4] (25° C.), 1.88 nM; in test [4] (37° C.), 10.8 nM; in test [5] (25° C.) it was 0.894 nM; in test [5] (37° C.), 4.63 nM. In addition, the T½ in test [3] (25° C.) is on record as 106 min; in test [3] (37° C.), 52 min; in test [4] (25° C.) it was 9 min; in test [4] (37° C.) it was 1 min; in test [5] (25° C.), 15 min; in test [5] (37° C.) it was 3 min.
